Results from patent publication US20180037641A1 (WASHINGTON UNIVERSITY, published 2018).

Key:
[1] = target: recombinant mouse tau, longest isoform mTau40 (432 aa) (mouse, UniProt P10637-2 1-430, limits assumed); assay: SPR (Biacore), mouse tau immobilised, antibody injected
Method: FIGS. 30A, 30B, 30C, 30D, 30E, 30F and 30G. Characterization of anti-tau antibodies by surface plasmon resonance (SPR) and Immunoblotting. The figure depicts SPR sensorgrams showing the binding of each anti-tau antibody towards immobilized recombinant human tau (longest isoforms hTau40, 441 aa) and immobilized mouse tau (longest isoforms mTau40, 432 aa). Each antibody was run with various concentrations (0.11, 0.23, 0.46, 0.90, […], 3.7, 7.5 μg/ml) and plots are shown in the corresponding color. (FIG. 30A) SPR sensorgrams of HJ9.3 antibody binding to immobilized human tau and immobilized mouse tau (FIG. 30B). (FIG. 30C) SPR sensorgrams of HJ9.4 antibody binding to immobilized human tau and immobilized mouse tau (FIG. 30D). SPR sensorgrams of HJ8.5 antibody binding to immobilized (FIG. 30E) human and (FIG. 30F) mouse tau. (FIG. 30G) RAB soluble fractions of 3 month old tau knockout (KO), 3 month old wild-type (WT), 3 month old P301 S (3 mo) and 9 month old P301 S (9 mo) mice were analyzed by immunoblot by using the indicated anti-tau antibodies.
Surface plasmon resonance Surface plasmon resonance experiments were performed on BIAcore 2000 surface plasmon resonance instrument (GE Healthcare-BIAcore). Biacore sensor chip CM-5 was activated by using EDC (1-ethyl-3-(3-dimethylaminopropyl)-carbodiimide) and NHS (N-hydroxysuccinimide) in a 1:1 ratio for 7 minutes. […]

[2] = target: T1, recombinant human tau, longest isoform hTau40 (441 aa) (human, UniProt P10636-8 1-441); assay: SPR (BIAcore 2000), tau immobilised on CM-5 chip, antibody injected 0.11-7.5 µg/ml, 1:1 Langmuir global fit
T1 construct: range 1-441
T1 sequence (P10636 other isoform, or with tags, fused parts or gaps limits assumed): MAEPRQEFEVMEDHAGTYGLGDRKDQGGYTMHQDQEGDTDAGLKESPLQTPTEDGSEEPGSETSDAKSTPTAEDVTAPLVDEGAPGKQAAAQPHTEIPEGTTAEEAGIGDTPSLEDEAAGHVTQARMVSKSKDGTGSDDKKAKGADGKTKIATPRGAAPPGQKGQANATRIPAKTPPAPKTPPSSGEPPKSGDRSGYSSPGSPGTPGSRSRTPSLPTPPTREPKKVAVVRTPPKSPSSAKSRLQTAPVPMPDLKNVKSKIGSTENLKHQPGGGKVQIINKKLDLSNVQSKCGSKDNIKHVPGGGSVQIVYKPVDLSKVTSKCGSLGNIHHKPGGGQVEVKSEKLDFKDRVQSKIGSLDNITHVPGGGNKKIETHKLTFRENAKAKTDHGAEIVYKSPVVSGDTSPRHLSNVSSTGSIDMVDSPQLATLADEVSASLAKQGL
Method: Prior to testing in vivo, the binding affinities and epitopes of the antibodies, which are all lgG2b isotype, were determined. Human and mouse tau was immobilized on a sensor chip CMS for surface plasmon resonance (SPR) (FIGS. 30A-30G). […] The association (Kₐ) and dissociation (Kd) was calculated by using BIAevaluation software (Biacore AB) selecting Fit kinetics simultaneous Kd/Kₐ (Global fitting) with 1:1 (Langmuir) interaction model. […] The epitope of HJ9.3 was mapped to the repeat domain (RD) region, between amino acids 306-320. […] It binds to human tau (FIG. 30E) but not to mouse tau (FIG. 30F). […] The epitope of HJ8.5 was mapped to amino acids 25-30. All 3 anti-tau antibodies strongly recognized human tau fibrils on SPR (FIG. 31). Because the fibrils have multiple identical epitopes, the association and dissociation rates could not be directly calculate.
Surface plasmon resonance Surface plasmon resonance experiments were performed on BIAcore 2000 surface plasmon resonance instrument (GE Healthcare-BIAcore). Biacore sensor chip CM-5 was activated by using EDC (1-ethyl-3-(3-dimethylaminopropyl)-carbodiimide) and NHS (N-hydroxysuccinimide) in a 1:1 ratio for 7 minutes.

[3] = target: T2, endogenous murine tau (mouse brain and ISF) (mouse, UniProt P10637-2 1-430, limits assumed); assay: immunoblot of RAB soluble brain fractions of KO, WT and P301S mice
T2 construct: Mixture of isoforms from tissue; also called mouse tau (Western blot, immunostaining, ISF immunoprecipitation)
T2 sequence (P10637 other isoform, or with tags, fused parts or gaps limits assumed): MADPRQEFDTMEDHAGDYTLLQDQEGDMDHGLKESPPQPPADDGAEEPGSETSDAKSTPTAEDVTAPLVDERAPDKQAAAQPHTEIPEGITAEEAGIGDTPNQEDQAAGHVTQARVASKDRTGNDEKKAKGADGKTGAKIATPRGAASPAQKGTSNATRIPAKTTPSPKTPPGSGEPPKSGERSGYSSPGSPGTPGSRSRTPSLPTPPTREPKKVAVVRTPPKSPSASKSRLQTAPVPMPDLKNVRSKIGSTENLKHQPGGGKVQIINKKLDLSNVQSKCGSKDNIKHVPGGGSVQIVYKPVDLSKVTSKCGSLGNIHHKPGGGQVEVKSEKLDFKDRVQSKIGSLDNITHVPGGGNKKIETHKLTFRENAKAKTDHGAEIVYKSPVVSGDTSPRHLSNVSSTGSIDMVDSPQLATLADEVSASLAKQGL

[4] = target: T1, recombinant human tau, longest isoform …; assay: SPR (Biacore), tau immobilised on CM-5 chip, antibody injected 0.78-400 nM
Method: To characterize the binding affinity of the HJ8 and HJ9 series antibodies to mouse tau and human tau, Biacore's SPR technology was used. Biacore sensor chip CM-5 (Carboxymethylated dextran matrix) was activated by using EDC (1-ethyl-3-(3-dimethylaminopropyl)-carbodiimid) and NHS (N-hydroxysuccinimide) in 1:1 ratio. 2). Then ligand, either mouse tau or human Tau, were immobilized (20 ug/ml, in 10 mM sodium acetate pH 3.5) on Biacore CM-5 sensor chip at a flow rate of 5 μI/min. The remaining unbound area on the Biacore CM-5 sensor chip was deactivated by passage of 1 M ethanolamine pH 8.5.
Following preparation of the sensor chip surface, analytes (e.g. antibody) were injected with different concentrations (0.78 nM-400 nM) in filtered, degassed 0.01 M Hepes buffer, 0.15 M NaCl, 0.005% surfactant P20, pH 7.4 at a flow rate of 10 μI/min. All the samples were run in duplicates. After each cycle/run with single antibody concentration, the surface of the chip was regenerated by using 10 mM glycine pH 1.7, to remove the bound antibody/analyte, leaving the monomer/fibrils/ligand attached to the surface.

recombinant mouse tau, longest isoform mTau40 (432 aa), sequence (P10637 other isoform, or with tags, fused parts or gaps limits assumed): as above

B1: HJ8.5 (antibody, V domains shown)
VH: EVKVEESGGGLVQPGGSMKLSCVVSGFTFSNYWVNWVRQSPEKGLEWVAQIRLKSDNYATHYEESVKGRFTISRDDSKSSVYLQMNNLRAEDSGIYYCTNWEDYWGQGTTLTVSS
VL: DIVLTQSPASLAVSLGQRATISCRASQSVSTSRYSYIHWYQQKPGQPPKLLIKYASNLESGVPARFSGSGSGTDFTLNIHPLEEEDAATYYCHHSWEIPLTFGAGTKLELK
notes: also called HJ8.5B (biotinylated)
For B1, the binding result [1] was “no binding (tested: 7.5 µg/ml)”, the Kd [2] was 0.336 pM and the koff [2] was 4.34e-08 s⁻¹. The kon [2] was 130000 M⁻¹ s⁻¹, the binding result [3] was “no binding” and the Kd [4] was 0.336 pM. It also gave a koff [4] of 4.34e-08 s⁻¹ and a kon [4] of 130000 M⁻¹ s⁻¹.
